{
  "source": "patent US20130157953A1",
  "about": "“TREATMENT OF CARDIAC CONDITIONS” (Zealand Pharma A/S, priority 2010, published 2013)",
  "binders": {"B1": {"name": "Compound 213 (peptide)", "peptide": "H-H[Aib]QGTFTSDYSKYLDSKAAK([γGlu-Palmitoyl])DFVAWLLRA-NH2", "SMILES": "CCCCCCCCCCCCCCCC(=O)N[C@@H](CCC(=O)NCCCC[C@H](NC(=O)[C@H](C)NC(=O)[C@H](C)NC(=O)[C@H](CCCCN)NC(=O)[C@H](CO)NC(=O)[C@H](CC(=O)O)NC(=O)[C@H](CC(C)C)NC(=O)[C@H](Cc1ccc(O)cc1)NC(=O)[C@H](CCCCN)NC(=O)[C@H](CO)NC(=O)[C@H](Cc1ccc(O)cc1)NC(=O)[C@H](CC(=O)O)NC(=O)[C@H](CO)NC(=O)[C@@H](NC(=O)[C@H](Cc1ccccc1)NC(=O)[C@@H](NC(=O)CNC(=O)[C@H](CCC(N)=O)NC(=O)C(C)(C)NC(=O)[C@@H](N)Cc1c[nH]cn1)[C@@H](C)O)[C@@H](C)O)C(=O)N[C@@H](CC(=O)O)C(=O)N[C@@H](Cc1ccccc1)C(=O)N[C@H](C(=O)N[C@@H](C)C(=O)N[C@@H](Cc1c[nH]c2ccccc12)C(=O)N[C@@H](CC(C)C)C(=O)N[C@@H](CC(C)C)C(=O)N[C@@H](CCCNC(=N)N)C(=O)N[C@@H](C)C(N)=O)C(C)C)C(=O)O"}, "B2": {"name": "Compound 206 (peptide)", "peptide": "H-H[Aib]QGTFTSDYSKYLDSK([γGlu-Palmitoyl])AAHDFVEWLLRA-NH2", "SMILES": "CCCCCCCCCCCCCCCC(=O)N[C@@H](CCC(=O)NCCCC[C@H](NC(=O)[C@H](CO)NC(=O)[C@H](CC(=O)O)NC(=O)[C@H](CC(C)C)NC(=O)[C@H](Cc1ccc(O)cc1)NC(=O)[C@H](CCCCN)NC(=O)[C@H](CO)NC(=O)[C@H](Cc1ccc(O)cc1)NC(=O)[C@H](CC(=O)O)NC(=O)[C@H](CO)NC(=O)[C@@H](NC(=O)[C@H](Cc1ccccc1)NC(=O)[C@@H](NC(=O)CNC(=O)[C@H](CCC(N)=O)NC(=O)C(C)(C)NC(=O)[C@@H](N)Cc1c[nH]cn1)[C@@H](C)O)[C@@H](C)O)C(=O)N[C@@H](C)C(=O)N[C@@H](C)C(=O)N[C@@H](Cc1c[nH]cn1)C(=O)N[C@@H](CC(=O)O)C(=O)N[C@@H](Cc1ccccc1)C(=O)N[C@H](C(=O)N[C@@H](CCC(=O)O)C(=O)N[C@@H](Cc1c[nH]c2ccccc12)C(=O)N[C@@H](CC(C)C)C(=O)N[C@@H](CC(C)C)C(=O)N[C@@H](CCCNC(=N)N)C(=O)N[C@@H](C)C(N)=O)C(C)C)C(=O)O"}, "B3": {"name": "Compound 209 (peptide)", "peptide": "H-H[Aib]QGTFTSDYSKYLDSKAAHDFVEWLLK([γGlu-Palmitoyl])A-NH2", "SMILES": "CCCCCCCCCCCCCCCC(=O)N[C@@H](CCC(=O)NCCCC[C@H](NC(=O)[C@H](CC(C)C)NC(=O)[C@H](CC(C)C)NC(=O)[C@H](Cc1c[nH]c2ccccc12)NC(=O)[C@H](CCC(=O)O)NC(=O)[C@@H](NC(=O)[C@H](Cc1ccccc1)NC(=O)[C@H](CC(=O)O)NC(=O)[C@H](Cc1c[nH]cn1)NC(=O)[C@H](C)NC(=O)[C@H](C)NC(=O)[C@H](CCCCN)NC(=O)[C@H](CO)NC(=O)[C@H](CC(=O)O)NC(=O)[C@H](CC(C)C)NC(=O)[C@H](Cc1ccc(O)cc1)NC(=O)[C@H](CCCCN)NC(=O)[C@H](CO)NC(=O)[C@H](Cc1ccc(O)cc1)NC(=O)[C@H](CC(=O)O)NC(=O)[C@H](CO)NC(=O)[C@@H](NC(=O)[C@H](Cc1ccccc1)NC(=O)[C@@H](NC(=O)CNC(=O)[C@H](CCC(N)=O)NC(=O)C(C)(C)NC(=O)[C@@H](N)Cc1c[nH]cn1)[C@@H](C)O)[C@@H](C)O)C(C)C)C(=O)N[C@@H](C)C(N)=O)C(=O)O"}, "B4": {"name": "Compound 210 (peptide)", "peptide": "H-H[Aib]QGTFTSDYSKYLDSK([γGlu-Palmitoyl])AAHDFVEWLLKA-NH2", "modifications": "lactam 24-28", "SMILES": "CCCCCCCCCCCCCCCC(=O)N[C@@H](CCC(=O)NCCCC[C@H](NC(=O)[C@H](CO)NC(=O)[C@H](CC(=O)O)NC(=O)[C@H](CC(C)C)NC(=O)[C@H](Cc1ccc(O)cc1)NC(=O)[C@H](CCCCN)NC(=O)[C@H](CO)NC(=O)[C@H](Cc1ccc(O)cc1)NC(=O)[C@H](CC(=O)O)NC(=O)[C@H](CO)NC(=O)[C@@H](NC(=O)[C@H](Cc1ccccc1)NC(=O)[C@@H](NC(=O)CNC(=O)[C@H](CCC(N)=O)NC(=O)C(C)(C)NC(=O)[C@@H](N)Cc1c[nH]cn1)[C@@H](C)O)[C@@H](C)O)C(=O)N[C@@H](C)C(=O)N[C@@H](C)C(=O)N[C@@H](Cc1c[nH]cn1)C(=O)N[C@@H](CC(=O)O)C(=O)N[C@@H](Cc1ccccc1)C(=O)N[C@H](C(=O)N[C@H]1CCC(=O)NCCCC[C@@H](C(=O)N[C@@H](C)C(N)=O)NC(=O)[C@H](CC(C)C)NC(=O)[C@H](CC(C)C)NC(=O)[C@H](Cc2c[nH]c3ccccc23)NC1=O)C(C)C)C(=O)O"}, "B5": {"name": "Compound 214 (peptide)", "peptide": "H-H[Aib]QGTFTSDYSKYLDSK([γGlu-Lauroyl])AAHDFVEWLLSA-NH2", "SMILES": "CCCCCCCCCCCC(=O)N[C@@H](CCC(=O)NCCCC[C@H](NC(=O)[C@H](CO)NC(=O)[C@H](CC(=O)O)NC(=O)[C@H](CC(C)C)NC(=O)[C@H](Cc1ccc(O)cc1)NC(=O)[C@H](CCCCN)NC(=O)[C@H](CO)NC(=O)[C@H](Cc1ccc(O)cc1)NC(=O)[C@H](CC(=O)O)NC(=O)[C@H](CO)NC(=O)[C@@H](NC(=O)[C@H](Cc1ccccc1)NC(=O)[C@@H](NC(=O)CNC(=O)[C@H](CCC(N)=O)NC(=O)C(C)(C)NC(=O)[C@@H](N)Cc1c[nH]cn1)[C@@H](C)O)[C@@H](C)O)C(=O)N[C@@H](C)C(=O)N[C@@H](C)C(=O)N[C@@H](Cc1c[nH]cn1)C(=O)N[C@@H](CC(=O)O)C(=O)N[C@@H](Cc1ccccc1)C(=O)N[C@H](C(=O)N[C@@H](CCC(=O)O)C(=O)N[C@@H](Cc1c[nH]c2ccccc12)C(=O)N[C@@H](CC(C)C)C(=O)N[C@@H](CC(C)C)C(=O)N[C@@H](CO)C(=O)N[C@@H](C)C(N)=O)C(C)C)C(=O)O"}, "B6": {"name": "Compound 216 (peptide)", "peptide": "H-H[Aib]QGTFTSDYSKYLDSK([Aoc-Palmitoyl])AAHDFVEWLLSA-NH2", "SMILES": "CCCCCCCCCCCCCCCC(=O)NCCCCCCCC(=O)NCCCC[C@H](NC(=O)[C@H](CO)NC(=O)[C@H](CC(=O)O)NC(=O)[C@H](CC(C)C)NC(=O)[C@H](Cc1ccc(O)cc1)NC(=O)[C@H](CCCCN)NC(=O)[C@H](CO)NC(=O)[C@H](Cc1ccc(O)cc1)NC(=O)[C@H](CC(=O)O)NC(=O)[C@H](CO)NC(=O)[C@@H](NC(=O)[C@H](Cc1ccccc1)NC(=O)[C@@H](NC(=O)CNC(=O)[C@H](CCC(N)=O)NC(=O)C(C)(C)NC(=O)[C@@H](N)Cc1c[nH]cn1)[C@@H](C)O)[C@@H](C)O)C(=O)N[C@@H](C)C(=O)N[C@@H](C)C(=O)N[C@@H](Cc1c[nH]cn1)C(=O)N[C@@H](CC(=O)O)C(=O)N[C@@H](Cc1ccccc1)C(=O)N[C@H](C(=O)N[C@@H](CCC(=O)O)C(=O)N[C@@H](Cc1c[nH]c2ccccc12)C(=O)N[C@@H](CC(C)C)C(=O)N[C@@H](CC(C)C)C(=O)N[C@@H](CO)C(=O)N[C@@H](C)C(N)=O)C(C)C"}},
  "note": "Numbered stars: 1 amine (or outer) side, 2 acyl side, 3 side chain; on linkers, the order of the positions; unused ones are H or OH. Bridge positions count the residues as written; N and C are the ends. Square brackets hold non-standard residues; d marks the D form. Side chains are listed from the residue outwards. * marks the point of attachment. γGlu = O=C(O)[C@H](CCC(=O)[*:2])N[*:1]; Palmitoyl = CCCCCCCCCCCCCCCC(=O)*; Lauroyl = CCCCCCCCCCCC(=O)*; Aib = CC(C)(N)C(=O)O; Aoc = NCCCCCCCC(=O)O",
  "data": [
    {"target": "human glucagon-like peptide 1 receptor (GLP-1R) (human, UniProt P43220 24-463)", "assay": "cell-based or functional assay", "units": {"EC50 (nM) GLP-1R; cAMP content, HEK293 cells expressing human GLP-1R": "nM"}, "values": [
      {"binder": "B1", "EC50 (nM) GLP-1R; cAMP content, HEK293 cells expressing human GLP-1R": 0.15},
      {"binder": "B2", "EC50 (nM) GLP-1R; cAMP content, HEK293 cells expressing human GLP-1R": 0.09},
      {"binder": "B3", "EC50 (nM) GLP-1R; cAMP content, HEK293 cells expressing human GLP-1R": 0.27},
      {"binder": "B4", "EC50 (nM) GLP-1R; cAMP content, HEK293 cells expressing human GLP-1R": 0.08},
      {"binder": "B5", "EC50 (nM) GLP-1R; cAMP content, HEK293 cells expressing human GLP-1R": 0.14},
      {"binder": "B6", "EC50 (nM) GLP-1R; cAMP content, HEK293 cells expressing human GLP-1R": 0.24}
    ]},
    {"target": "human glucagon receptor (Glucagon-R) (human, UniProt P47871 26-477)", "sequence (P47871 26-477)": "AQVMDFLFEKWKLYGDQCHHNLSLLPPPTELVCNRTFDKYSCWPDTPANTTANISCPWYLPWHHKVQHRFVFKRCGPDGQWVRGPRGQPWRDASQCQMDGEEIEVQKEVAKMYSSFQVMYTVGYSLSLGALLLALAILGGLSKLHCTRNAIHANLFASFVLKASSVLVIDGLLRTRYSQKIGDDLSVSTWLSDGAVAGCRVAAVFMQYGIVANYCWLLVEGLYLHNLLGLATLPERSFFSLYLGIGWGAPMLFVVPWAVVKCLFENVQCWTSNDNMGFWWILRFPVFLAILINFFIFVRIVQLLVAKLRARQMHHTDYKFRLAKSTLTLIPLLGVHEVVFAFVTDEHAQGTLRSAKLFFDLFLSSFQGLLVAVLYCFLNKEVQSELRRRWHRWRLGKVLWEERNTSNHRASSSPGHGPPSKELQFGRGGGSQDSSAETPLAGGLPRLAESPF", "assay": "cell-based or functional assay", "units": {"EC50 (nM) GuR; cAMP content, HEK293 cells expressing the human glucagon receptor": "nM"}, "values": [
      {"binder": "B1", "EC50 (nM) GuR; cAMP content, HEK293 cells expressing the human glucagon receptor": 0.63},
      {"binder": "B2", "EC50 (nM) GuR; cAMP content, HEK293 cells expressing the human glucagon receptor": 0.16},
      {"binder": "B3", "EC50 (nM) GuR; cAMP content, HEK293 cells expressing the human glucagon receptor": 0.27},
      {"binder": "B4", "EC50 (nM) GuR; cAMP content, HEK293 cells expressing the human glucagon receptor": 0.26},
      {"binder": "B5", "EC50 (nM) GuR; cAMP content, HEK293 cells expressing the human glucagon receptor": 0.78},
      {"binder": "B6", "EC50 (nM) GuR; cAMP content, HEK293 cells expressing the human glucagon receptor": 0.46}
    ]}
  ]
}
